Changes are numbered by the printed parent chain. No end group written: not given here.
Assays:
HpParA (HpSoj) = molecular target: T1, HpParA (HpSoj) (Helicobacter pylori, UniProt O25759 1-264); assay: fluorescence polarization; 1 mM ATP, 5 mM Mg2+; FP: 20 mM Tris-HCl pH 8.0, 175 mM NaCl, 5 mM MgCl2, 10% glycerol, 1 mM ATP or CTP, 5 nM DNA, room temperature; EMSA: 20 mM Tris-HCl pH 8.0, 50 mM NaCl, 11 mM imidazole, 5 mM MgCl2, 10% glycerol, +/- 2 mM CTP, 37 C, gel at 4 C; conditions: protein: recombinant; tags: His (Ni-NTA purified); label: 5' Cy5 in EMSA; FP label Cy3 or Cy5 not specified per DNA; blunt
T1 sequence: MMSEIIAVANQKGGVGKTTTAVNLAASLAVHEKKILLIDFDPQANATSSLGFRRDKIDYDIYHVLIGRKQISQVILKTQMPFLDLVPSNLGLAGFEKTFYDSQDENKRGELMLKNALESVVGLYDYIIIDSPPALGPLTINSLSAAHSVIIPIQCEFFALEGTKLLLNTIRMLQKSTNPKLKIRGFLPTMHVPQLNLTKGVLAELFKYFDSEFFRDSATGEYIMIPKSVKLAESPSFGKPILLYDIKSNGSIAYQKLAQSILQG

HpParAD41A = HpParAD41A (Helicobacter pylori, UniProt O25759 1-264, D41A); assay: as above; conditions: protein: recombinant; tags: His (Ni-NTA purified); label: 5' Cy5 in EMSA; FP label Cy3 or Cy5 not specified per DNA; blunt
HpParB (HpSpo0J) [1] = molecular target: T2, HpParB (HpSpo0J) (Helicobacter pylori, UniProt O25758 1-290); assay: fluorescence polarization; 1 mM CTP, 5 mM Mg2+; FP: 20 mM Tris-HCl pH 8.0, 175 mM NaCl, 5 mM MgCl2, 10% glycerol, 1 mM ATP or CTP, 5 nM DNA, room temperature; EMSA: 20 mM Tris-HCl pH 8.0, 50 mM NaCl, 11 mM imidazole, 5 mM MgCl2, 10% glycerol, +/- 2 mM CTP, 37 C, gel at 4 C; conditions: protein: recombinant, tags: His (Ni-NTA purified), chain copies: 2, blunt
T2 sequence: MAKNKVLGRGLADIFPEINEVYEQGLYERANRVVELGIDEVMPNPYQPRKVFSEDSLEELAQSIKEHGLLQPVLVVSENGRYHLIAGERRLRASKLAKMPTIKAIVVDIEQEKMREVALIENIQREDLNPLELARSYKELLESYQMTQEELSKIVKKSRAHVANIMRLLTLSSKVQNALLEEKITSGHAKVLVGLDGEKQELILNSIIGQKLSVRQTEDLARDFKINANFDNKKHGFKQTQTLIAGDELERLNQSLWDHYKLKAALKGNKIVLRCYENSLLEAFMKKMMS

[2] = molecular target: T3, HpParA (HpSoj);HpParB (HpSpo0J) (Helicobacter pylori;Helicobacter pylori, UniProt O25759;O25758 1-264;1-290, |); assay: EMSA; no CTP; NAC1 with Cy3-parS (N3) also in complex; FP: 20 mM Tris-HCl pH 8.0, 175 mM NaCl, 5 mM MgCl2, 10% glycerol, 1 mM ATP or CTP, 5 nM DNA, room temperature; EMSA: 20 mM Tris-HCl pH 8.0, 50 mM NaCl, 11 mM imidazole, 5 mM MgCl2, 10% glycerol, +/- 2 mM CTP, 37 C, gel at 4 C; conditions: protein: recombinant;recombinant; tags: His (Ni-NTA purified); label: 5' Cy5 in EMSA; FP label Cy3 or Cy5 not specified per DNA; blunt
T3 sequence 1: T1 sequence
T3 sequence 2: T2 sequence

[3] = molecular target: HpParAD41A;HpParB (HpSpo0J) (Helicobacter pylori;Helicobacter pylori, UniProt O25759;O25758 1-264;1-290, D41A|); assay: EMSA; no CTP; NAC3 with Cy3-parS (N3) also in complex; FP: 20 mM Tris-HCl pH 8.0, 175 mM NaCl, 5 mM MgCl2, 10% glycerol, 1 mM ATP or CTP, 5 nM DNA, room temperature; EMSA: 20 mM Tris-HCl pH 8.0, 50 mM NaCl, 11 mM imidazole, 5 mM MgCl2, 10% glycerol, +/- 2 mM CTP, 37 C, gel at 4 C; conditions: protein: recombinant;recombinant; tags: His (Ni-NTA purified); label: 5' Cy5 in EMSA; FP label Cy3 or Cy5 not specified per DNA; blunt
HpParB (HpSpo0J) [4] = molecular target: T2, HpParB (HpSpo0J); assay: fluorescence polarization; no CTP, 5 mM Mg2+; FP: 20 mM Tris-HCl pH 8.0, 175 mM NaCl, 5 mM MgCl2, 10% glycerol, 1 mM ATP or CTP, 5 nM DNA, room temperature; EMSA: 20 mM Tris-HCl pH 8.0, 50 mM NaCl, 11 mM imidazole, 5 mM MgCl2, 10% glycerol, +/- 2 mM CTP, 37 C, gel at 4 C; conditions: protein: recombinant; tags: His (Ni-NTA purified); chain copies: 2; label: 5' Cy3 (FP dye assignment inferred from EMSA); blunt
Ct-HpParB = molecular target: T4, Ct-HpParB (Helicobacter pylori, UniProt O25758 1-240); assay: EMSA; no CTP; FP: 20 mM Tris-HCl pH 8.0, 175 mM NaCl, 5 mM MgCl2, 10% glycerol, 1 mM ATP or CTP, 5 nM DNA, room temperature; EMSA: 20 mM Tris-HCl pH 8.0, 50 mM NaCl, 11 mM imidazole, 5 mM MgCl2, 10% glycerol, +/- 2 mM CTP, 37 C, gel at 4 C; conditions: protein: recombinant; chain copies: 2; label: none (GelRed stain); blunt
T4 sequence: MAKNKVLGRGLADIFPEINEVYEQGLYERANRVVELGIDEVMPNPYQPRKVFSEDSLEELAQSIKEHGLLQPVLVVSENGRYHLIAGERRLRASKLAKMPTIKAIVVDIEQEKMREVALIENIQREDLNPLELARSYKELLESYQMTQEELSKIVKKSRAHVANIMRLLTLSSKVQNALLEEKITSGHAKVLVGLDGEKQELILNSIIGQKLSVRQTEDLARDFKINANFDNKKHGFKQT

[5] = molecular target: T5, HpParAD41A, ATP hydrolysis-deficient mutant of Helicobacter pylori ParA (Helicobacter pylori, UniProt O25759, D41A); assay: MST; 5-FAM-Ahx-labeled peptide (200 nM) mixed 1:1 with 16 serial dilutions of unlabeled HpParA or HpParAD41A (300 μM); 20 mM Tris-HCl pH 8.0, 5% glycerol, 200 mM NaCl, 50 mM imidazole, 5 mM MgCl2, 0.05% Tween20; 25°C; the results speak of ParA-DNA complexes; conditions: both partners purified
T5 construct: also called HpSojD41A; source: recombinant, grown in Luria-Bertani medium, induced with IPTG, purified as HpParA (Ni-NTA, SEC)
T5 sequence: T1 sequence with D41A

B1: Cy5/Cy3-labeled nsDNA 24-bp (dsDNA)
DNA 1: TCCTATGAATTGCTATGGCAAGCG
DNA 2: CGCTTGCCATAGCAATTCATAGGA
Kd (HpParA (HpSoj)): 0.117 ± 0.0152 µM
Kd (HpParAD41A): 0.149 ± 0.0181 µM
Kd (HpParB (HpSpo0J) [1]; label: 5' Cy5 in EMSA, FP label Cy3 or Cy5 not specified per DNA): 0.145 ± 0.0288 µM
binding result [2]: binds
binding result [3]: binds

B2: Cy3-parS 24-bp (dsDNA)
DNA 1: AGGGTGTTCCACGTGAAACAGGGA
DNA 2: TCCCTGTTTCACGTGGAACACCCT
Kd (HpParB (HpSpo0J) [1]; label: 5' Cy3 (FP dye assignment inferred from EMSA)): 0.232 ± 0.042 µM
Kd (HpParB (HpSpo0J) [4]): 0.0634 ± 0.0056 µM

B3: nsDNA 24-bp (dsDNA)
DNA 1: TCCTATGAATTGCTATGGCAAGCG
DNA 2: CGCTTGCCATAGCAATTCATAGGA
binding result (Ct-HpParB): no binding

B4: HpParBN10, N-terminal peptide of HpParB (residues 1-10) (peptide)
peptide: MAKNKVLGRG
modifications: not fully specified (N-terminus); also: labeled with 5-FAM-Ahx fluorophore, site not given here
notes: residues 1-10 of Helicobacter pylori Spo0J/ParB (HP1138); The methods describe only the 5-FAM-Ahx-labelled peptide; also called HpSpo0JN10; source: synthetic peptide, bought: MDBio, inc
Kd [5]: 5.3 ± 1.1 µM

Reference: paper PMC11229316, “Insights into the molecular mechanism of ParABS system in chromosome partition by HpParA and HpParB” (Nucleic Acids Research, 2024)
